Assay [1] concerns the target T1, E. coli-produced recombinant protein corresponding to aa 195-aa 461 in SEQ ID NO: 2 (human, UniProt Q96PD2 195-461).
T1 construct: pET28a expression system; vector-encoded tag residues not described
T1 sequence: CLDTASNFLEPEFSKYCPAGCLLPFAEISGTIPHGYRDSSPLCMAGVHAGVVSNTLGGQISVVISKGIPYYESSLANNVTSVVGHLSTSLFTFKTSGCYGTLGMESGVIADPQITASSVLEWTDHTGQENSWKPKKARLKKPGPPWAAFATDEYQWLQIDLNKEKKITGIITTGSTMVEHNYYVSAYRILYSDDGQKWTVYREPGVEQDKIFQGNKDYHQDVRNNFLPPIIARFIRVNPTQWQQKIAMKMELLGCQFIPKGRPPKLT
Description: ELISA on purified E. coli fragment. The method, then:
(§1) Each antibody was assayed by ELISA using the purified proteins prepared described above.
Background: In an ELISA, binding on a coated surface is turned into a signal by an enzyme label.

For assay [2], the target named is T2, E. coli-produced recombinant protein corresponding to aa 195-aa 453 in SEQ ID NO: 2 (human, UniProt Q96PD2 195-453).
T2 construct: pET28a, BL21, urea-solubilised, TALON-purified; vector-encoded tag residues not described
T2 sequence: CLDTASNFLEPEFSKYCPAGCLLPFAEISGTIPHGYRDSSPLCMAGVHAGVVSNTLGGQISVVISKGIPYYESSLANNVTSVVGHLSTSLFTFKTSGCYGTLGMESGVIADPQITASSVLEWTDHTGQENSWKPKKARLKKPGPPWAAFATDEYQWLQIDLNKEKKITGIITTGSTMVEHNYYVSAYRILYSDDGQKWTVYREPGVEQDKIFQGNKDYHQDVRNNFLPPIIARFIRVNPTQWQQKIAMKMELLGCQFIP
In words: ELISA on purified E. coli fragment. On the procedure: as §1

The target of assay [3] is T3, endogenous human CLCP1 in H460-LNM35 cell lysate (human, UniProt Q96PD2 67-775).
T3 construct: Same protein as m1 but solubilised: SDS lysate for Western blot (denatured, reduced) or NP-40 lysate for immunoprecipitation; also called endogenous CLCP1
T3 sequence: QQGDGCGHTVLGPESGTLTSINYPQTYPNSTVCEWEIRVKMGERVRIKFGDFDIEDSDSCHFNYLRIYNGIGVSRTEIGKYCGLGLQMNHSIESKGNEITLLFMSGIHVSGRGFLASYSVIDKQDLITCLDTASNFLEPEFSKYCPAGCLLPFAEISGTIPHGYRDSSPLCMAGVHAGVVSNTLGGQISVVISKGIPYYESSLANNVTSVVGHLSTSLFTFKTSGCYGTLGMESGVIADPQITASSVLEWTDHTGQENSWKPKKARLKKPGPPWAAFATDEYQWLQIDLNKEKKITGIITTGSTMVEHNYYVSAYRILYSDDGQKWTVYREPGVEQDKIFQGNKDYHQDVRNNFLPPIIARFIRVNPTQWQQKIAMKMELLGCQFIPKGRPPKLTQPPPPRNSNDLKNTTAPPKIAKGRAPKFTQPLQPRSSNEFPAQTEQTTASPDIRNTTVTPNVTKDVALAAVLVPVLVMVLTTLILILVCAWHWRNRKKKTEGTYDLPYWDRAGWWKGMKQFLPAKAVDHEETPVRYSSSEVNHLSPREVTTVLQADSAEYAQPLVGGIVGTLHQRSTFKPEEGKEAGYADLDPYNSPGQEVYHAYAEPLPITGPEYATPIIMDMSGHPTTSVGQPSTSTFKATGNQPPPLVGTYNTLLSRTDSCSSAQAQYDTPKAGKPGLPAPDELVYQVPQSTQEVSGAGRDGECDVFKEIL
In words: Western blot of H460-LNM35 lysate; almost no signal in CLCP1-knockdown cells. On the procedure:
As described in the reference, Nagai H, et al., Oncogene 26: 4025-4031 (2007), a subline that constitutively expresses a CLCP1 siRNA as a short hairpin RNA (shRNA) biosynthesized in cells has been established from the high expressing CLCP1 cell line H460-LNM35. […] Western blotting was carried out using siCLCP1-3 #9 cells (CLCP1 Knockdown in FIG. 8) and H460-LNM35 cells.
2×10⁶ cells of the high expressing CLCP1 cell line H460-LNM35 and siCLCP1-3 #9 line were each suspended in lysis buffer [50 mM Tris (pH 6.8), 5% glycerol, 2% SDS], and the protein concentration was determined using the DC Protein Assay Kit (Bio-Rad). Then, 2-mercaptoethanol was added at 5.3% to the lysates. After heating, 20 μg each of the lysates were subjected to SDS-PAGE, followed by Western blotting with each of the antibodies and an HRP-labeled anti-mouse or anti-rabbit antibody. […] Meanwhile, there was almost no detectable signal in siCLCP1-3 #9 cells.

For assay [4], the target named is T4, purified partial protein containing the FA58C domain of human CLCP1 (amino acid positions 284 to 526), … (human, UniProt Q96PD2 284-526).
T4 construct: also called partial protein containing FA58C domain; region containing FA58C; not shown: myc-His tag
T4 sequence: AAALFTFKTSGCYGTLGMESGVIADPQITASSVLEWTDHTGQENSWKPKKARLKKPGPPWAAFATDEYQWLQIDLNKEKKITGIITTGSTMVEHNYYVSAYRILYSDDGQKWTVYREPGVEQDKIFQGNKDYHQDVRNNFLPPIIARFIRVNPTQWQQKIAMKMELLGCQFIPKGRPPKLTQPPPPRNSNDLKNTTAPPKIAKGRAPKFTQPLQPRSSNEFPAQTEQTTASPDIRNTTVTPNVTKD
Description: ELISA, hybridoma screening on immunogen-coated plate. An excerpt:
After expansion culture in HT medium [RPMI1640, HT-supplement (Invitrogen; 21060-017), Penicillin, and Streptomycin] supplemented with 15% FBS, the cells were cloned into single clones by the limiting dilution method. Eleven hybridoma clones producing anti-human CLCP1 antibody were obtained by the method described above.

The target in assay [5] is T5, human CLCP1 (CUB, LCCL-homology, coagulation factor V/VIII homology domains protein), full length, on cells (human, UniProt Q96PD2 67-775).
T5 construct: also called ESDN; DCBLD2
T5 sequence: T3 sequence
Description: flow cytometry on H460-LNM35 cells, antibody 5 ug/ml, PE anti-mouse IgG. The method, then:
The antibodies prepared as described above were assessed for the reactivity to endogenous human CLCP1 by testing their reactivity to cells of high CLCP1-expressing line H460-LNM35 according to the following method. Anti-human CLCP1 antibody was purified from culture supernatant of each hybridoma clone by a conventional affinity purification method using Protein A-Sepharose. The purified antibodies were each diluted to 5 μg/ml, and the reaction intensity to H460-LNM35 was assessed by flow cytometry. In this assay, the anti-CLCP1 monoclonal antibody bound on the cell surface was detected by using a phycoerythrin-labeled anti-mouse IgG antibody. All samples were processed under the same conditions.
On the technique in general: Flow cytometry measures light scatter and fluorescence of single cells or particles in a stream.

Assay [6] addresses T5, human CLCP1 (CUB, LCCL-homology, …). Description: flow cytometry on NCI-H460-LNM35 cells.
For assay [7] the target is unchanged. Description: cell-based or functional assay.
Assay [8] concerns the target T6, E. coli-produced recombinant protein corresponding to aa 195-aa 465 in SEQ ID NO: 2 (human, UniProt Q96PD2 195-465).
T6 construct: pET28a expression system; vector-encoded tag residues not described
T6 sequence: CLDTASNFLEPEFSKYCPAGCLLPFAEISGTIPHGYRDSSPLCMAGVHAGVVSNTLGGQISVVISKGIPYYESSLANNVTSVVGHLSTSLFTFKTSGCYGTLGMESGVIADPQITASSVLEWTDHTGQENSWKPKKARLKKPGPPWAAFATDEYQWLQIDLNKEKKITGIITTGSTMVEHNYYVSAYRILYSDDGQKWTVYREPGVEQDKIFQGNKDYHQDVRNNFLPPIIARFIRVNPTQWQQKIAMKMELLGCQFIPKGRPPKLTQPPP
Description: ELISA on purified E. coli fragment. The method, then: as §1

The target in assay [9] is T7, E. coli-produced recombinant protein corresponding to aa 195-aa 457 in SEQ ID NO: 2 (human, UniProt Q96PD2 195-457).
T7 construct: pET28a expression system; vector-encoded tag residues not described
T7 sequence: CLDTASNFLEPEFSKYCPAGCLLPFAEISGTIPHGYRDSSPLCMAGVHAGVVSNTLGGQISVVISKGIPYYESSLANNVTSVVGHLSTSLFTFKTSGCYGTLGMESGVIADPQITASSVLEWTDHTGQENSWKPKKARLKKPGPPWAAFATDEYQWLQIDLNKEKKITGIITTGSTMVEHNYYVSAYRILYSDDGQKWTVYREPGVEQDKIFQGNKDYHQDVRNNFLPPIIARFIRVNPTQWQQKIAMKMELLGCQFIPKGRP
Description: ELISA on purified E. coli fragment. The method, then: as §1

The target in assay [10] is T8, purified protein of the whole extracellular domain of human CLCP1 (amino acid positions 1 to 526), myc-His … (human, UniProt Q96PD2 67-526).
T8 construct: also called whole extracellular domain protein; complete extracellular domain protein; not shown: myc-His tag
T8 sequence: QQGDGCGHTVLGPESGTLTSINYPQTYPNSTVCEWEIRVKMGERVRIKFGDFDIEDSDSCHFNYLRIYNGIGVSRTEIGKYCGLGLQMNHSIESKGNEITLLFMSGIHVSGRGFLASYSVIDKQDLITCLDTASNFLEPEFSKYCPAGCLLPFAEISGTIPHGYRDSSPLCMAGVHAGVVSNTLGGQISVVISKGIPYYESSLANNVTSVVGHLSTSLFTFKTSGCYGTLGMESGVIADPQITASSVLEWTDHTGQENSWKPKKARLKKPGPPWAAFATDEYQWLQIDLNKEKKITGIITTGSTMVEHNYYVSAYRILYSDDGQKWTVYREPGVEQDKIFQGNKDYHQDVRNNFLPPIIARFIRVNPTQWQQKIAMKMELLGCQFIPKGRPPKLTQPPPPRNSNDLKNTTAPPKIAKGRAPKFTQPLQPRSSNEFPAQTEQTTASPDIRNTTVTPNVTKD
In words: ELISA on purified extracellular domain protein, culture supernatants. On the procedure:
Using the culture supernatants whose IgG concentrations had been determined, the activities of the chimeric antibody, humanized antibody, and serine-substituted humanized antibody were assessed and compared by ELISA for the purified protein of the extracellular domain of CLCP1 described in Example 21. […] Thus, humanized FA19-1 was successfully designed (FIGS. 42 and 43).

Where a chain is given by its changes, count along the chain named.

B1: 6AA-17-2 (antibody, V domains shown)
VH: EVQLQQSGAELVRPGALVKLSCKASGFNIKDYYMHWVKQRPEQGLEWIGWIDPENDNTIYDPKFQGKASITADTSSNTAYLHLSSLTSEDTAVYYCARAYGYDDYYAMEYWGQGTSVTVSS
VL: NIMMTQSPSSLAVSAGEKVTMSCKSSQSVLYSSNQKNYLAWYQQKPGQSPKLLIYWTSTRESGVPDRFTGSGSGTDFTLTISSVQAEDLAIYYCHQYLYSYTFGGGTKL
notes: Mouse monoclonal raised against the partial protein containing the FA58C domain; also called Antibody 3
As to B1, the binding result in assay [1] and in assay [2] was “no binding” throughout.

B2: FA17-9 (antibody, V domains shown)
VH: EVQLQQSGPELVKPGASVKMSCKASGYTFTTYVMHWVKQKPGQGLEWIGYINPYNDGTKYNEKFKGKATLTSDKSSSTAYMELSSLTSEDSAVYYCARGANYYGSSYNWSFDVWGAGTTVTVSS
VL: DIQMTQSPSSLSASLGGKVTITCKASQDINKYIAWYQHKPGEGPRLLIHYTSTLQPGIPSRFSGSGSGRDYSFSISNLEPEDIATYYCLQYDYLWTFGGGTKL
notes: Mouse monoclonal; also called antibody No. FA17-9; Antibody 1
In the case of B2, the binding result in [3], in [4] and in [5] was “binds” in each case.

B3: chimeric FA17-9 antibody (antibody, V domains shown)
VH: B2 VH
VL: B2 VL
notes: Variable regions of FA17-9 joined to constant regions derived from human IgG1 (LONZA vector)
For B3, the binding result in [6] is reported as “binds”.

B4: chimeric FA19-1 antibody (antibody, V domains shown)
VH: B2 VH with V33I, K67E, S106N
VL: B2 VL with K24R, E42K, Y50H, S52C
On to B4, for which, in [7], the “ADCC, % cytotoxicity (lactate dehydrogenase release), A549 targets, antibody 10 ug/ml, E/T ratio 50, five donors” value is 47.1% and the “ADCC, % cytotoxicity (lactate dehydrogenase release), NCI-H460-LNM35 targets, antibody 10 ug/ml, E/T ratio 50” value is 32.4%.

B5: FA19-1 (antibody, V domains shown)
VH: B2 VH with V33I, K67E, S106N
VL: B2 VL with K24R, E42K, Y50H, S52C
notes: Mouse monoclonal; also called antibody No. FA19-1; Antibody 2
Consider B5, for which the binding result in assay [8], in [9], in assay [1] and in assay [2] was “no binding” each time.

B6: serine-substituted humanized FA19-1 antibody (FA19RHA and serine-substituted light chain) (antibody, V domains shown)
VH: QVQLVQSGAEVKKPGASVKVSCKASGYTFTTYIMHWVRQAPGQRLEWIGYINPYNDGTKYNEKFKGRVTVTRDTSANTAYMELSSLKSEDTAVYYCARGANYYGSNYNWSFDVWGQGTLVTVSS
VL: DIQMTQSPSSLSASVGDRVTITCRASQDINKYIAWYQQKPGKAPKLLIYHTSTLQPGVPSRFSGSGSGTDFTLTISSLQPEDFATYYCLQYDYLWTFGGGTKVEIK
notes: it is the cysteine of the CDR2 motif HTCTLQP; also called serine-substituted humanized antibody; serine-substituted antibody
For B6, the binding result in [10] is “binds”.

The values are drawn from patent publication US20110293618A1 (MEDICAL AND BIOLOGICAL LABORATORIES, published 2011).
